Data from article PMC11493271, “The N-terminal activation function AF-1 domain of ERα interacts directly with the C-terminal AF-2-holding ligand-binding domain to recruit the coactivator proteins” (PLOS ONE, 2024).
Entries after “also recorded” stand apart in the source; their conditions may differ.

Experiments:
[1] = target: full-length estrogen receptor alpha (ERα), wild type (1-595) (human) (UniProt P03372)
[2] = target: desNTD(AF-1)-ERα, ERα C-terminal fragment with amino acid residues 181-595 (human) (UniProt P03372)
[3] = target: full-length estrogen receptor alpha (ERα), wild type (1-595) (human) (UniProt P03372); remark: listed apart in the source
desNTD(AF-1)-ERα = target: T1, desNTD(AF-1)-ERα (Homo sapiens, UniProt P03372); test: Luciferase reporter gene assay for desNTD(AF-1)-ERα, alone or co-expressed with ERα-NTD(AF-1), in HeLa cells
T1 sequence (P03372 181-595): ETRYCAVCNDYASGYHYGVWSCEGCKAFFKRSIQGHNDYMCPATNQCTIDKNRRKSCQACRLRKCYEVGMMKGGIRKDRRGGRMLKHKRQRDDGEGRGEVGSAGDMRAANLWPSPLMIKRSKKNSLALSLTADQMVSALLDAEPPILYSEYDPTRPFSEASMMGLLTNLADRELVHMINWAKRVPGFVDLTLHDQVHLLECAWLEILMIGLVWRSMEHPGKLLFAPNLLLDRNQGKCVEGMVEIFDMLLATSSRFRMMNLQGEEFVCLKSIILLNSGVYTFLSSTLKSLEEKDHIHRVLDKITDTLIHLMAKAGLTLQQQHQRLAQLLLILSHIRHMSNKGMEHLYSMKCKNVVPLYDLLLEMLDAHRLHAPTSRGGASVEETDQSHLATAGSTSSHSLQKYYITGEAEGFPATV
Experimental: (§1) The luciferase reporter gene assays were carried out exactly as described above.

[4] = test system: 3 × ERE/pGL3 luciferase reporter; test: Transcription activity of truncated ERα derivatives in the luciferase reporter gene assay (HeLa cells); details: plasmid 250 ng/well
Experimental: as §1

full-length ERα = target: T2, full-length ERα (Homo sapiens, UniProt P03372); test: ERα-NTD(AF-1) inhibition assay: co-expression with full-length ERα, luciferase reporter gene assay in HeLa cells; type: cell-based; details: for effect on transcription activity of full-length ERα: plasmid 0.01–2.00 μg/well with full-length ERα 0.05 μg/well, E2 0.1, 1 or 50 nM, Fig 3
T2 construct: […]; host or cells: HeLa cells
T2 sequence (P03372 1-595): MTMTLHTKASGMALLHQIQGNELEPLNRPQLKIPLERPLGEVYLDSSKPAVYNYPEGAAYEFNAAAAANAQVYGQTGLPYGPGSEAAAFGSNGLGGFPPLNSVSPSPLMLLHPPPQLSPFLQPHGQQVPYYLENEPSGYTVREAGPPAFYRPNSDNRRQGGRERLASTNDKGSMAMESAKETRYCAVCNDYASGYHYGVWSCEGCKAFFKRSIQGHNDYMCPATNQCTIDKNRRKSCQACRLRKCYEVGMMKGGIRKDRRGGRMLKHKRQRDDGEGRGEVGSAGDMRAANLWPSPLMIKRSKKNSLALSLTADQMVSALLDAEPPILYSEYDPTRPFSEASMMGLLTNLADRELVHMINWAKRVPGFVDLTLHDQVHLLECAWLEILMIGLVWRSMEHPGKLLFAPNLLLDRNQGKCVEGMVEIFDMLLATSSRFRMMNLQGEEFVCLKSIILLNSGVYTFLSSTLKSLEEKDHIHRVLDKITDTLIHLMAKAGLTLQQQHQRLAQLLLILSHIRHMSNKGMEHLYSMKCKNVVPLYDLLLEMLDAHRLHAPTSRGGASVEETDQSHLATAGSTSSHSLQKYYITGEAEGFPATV
Experimental: Other expression plasmids were used in fixed amounts: full-length ERα/pcDNA3.1 (0.05 μg/well), 3 × ERE/pGL3 (0.15 μg/well), and pGL4.74 (0.05 μg/well) (Table 1).
Gene transfections followed by luciferase reporter gene assays were carried out basically as described above.
Thus, each distinct maximal activity was evaluated precisely as a percentage.

For “ERα-NTD(AF-1), untethered free N-terminal fragment of estrogen receptor alpha (residues 1-180), non-tagged (from UniProt P03372 1-180) (domain or fragment)”, the luciferase reporter gene assay in HeLa cells: IC50 of the ERα-NTD(AF-1) plasmid (amount transfected per well of a 6-well microplate) from the curve of the maximal activity of ERα/E2 [1] was 631 ng/well, the luciferase reporter gene assay in HeLa cells: apparent IC50 of the ERα-NTD(AF-1) plasmid (amount transfected per well of a 6-well microplate) for inhibition of desNTD(AF-1)-ERα [2] was 863 ng/well and the luciferase reporter gene assay in HeLa cells: apparent IC50 of the ERα-NTD(AF-1) plasmid (amount transfected per well of a 6-well microplate) for the activity of 10 nM E2 on full-length ERα [3] was 836 ng/well.

B1: ERα-NTD(AF-1): ERα N-terminal fragment with amino acid residues 1–180, expressed from plasmid ERα-NTD(AF-1)/pcDNA3.1 (protein)
chain: MTMTLHTKASGMALLHQIQGNELEPLNRPQLKIPLERPLGEVYLDSSKPAVYNYPEGAAYEFNAAAAANAQVYGQTGLPYGPGSEAAAFGSNGLGGFPPLNSVSPSPLMLLHPPPQLSPFLQPHGQQVPYYLENEPSGYTVREAGPPAFYRPNSDNRRQGGRERLASTNDKGSMAMESAK
For B1, the “reduction in E2-induced transactivation compared to desNTD(AF-1)-ERα alone” value (“reduction in E2-induced transactivation” below) (desNTD(AF-1)-ERα; ERα-NTD(AF-1): desNTD(AF-1)-ERα = 1:1, desNTD(AF-1)-ERα 250 ng/well) was about 20%, the “apparent IC50 for inhibition of desNTD(AF-1)-ERα” value (desNTD(AF-1)-ERα; plasmid amount per well of 6-well microplate used for transfection) was 863 ng/well and the “reduction in E2-induced transactivation” value (desNTD(AF-1)-ERα; ratio 2:1) was 44%. The “reduction in E2-induced transactivation” value (desNTD(AF-1)-ERα; ratio 3:1) was 62%, the “reduction in E2-induced transactivation” value (desNTD(AF-1)-ERα; ratio 4:1) was 73% and the “reduction in E2-induced transactivation” value (desNTD(AF-1)-ERα; ratio 5:1) was 85%. The “reduction in E2-induced transactivation” value (desNTD(AF-1)-ERα; ratio 6:1) was 91%, the “transcription activation (response to E2)” value ([4]; construct expressed alone) was “completely inactive; also recorded: completely devoid of transcription activation” and the “relative activity (% of wild-type full-length ERα)” value ([4]; maximal E2 activity) was 0%. For the same molecule, the “IC50 from transfection amount vs maximal activity of ERα/E2” value (full-length ERα; E2 dose-response maxima, plasmid per well of 6-well microplate, Fig 4C) was 631 ng/well, the “effect on transcription activity of full-length ERα” value (full-length ERα) was “reduced in a dose-dependent manner” and the “apparent IC50 for inhibition of full-length ERα” value (full-length ERα; residual activity of 10 nM E2, plasmid per well of 6-well microplate, Fig 4A) was 836 ng/well. For the same molecule, the “mode of inhibition of full-length ERα” value (full-length ERα; with respect to E2) was “non-competitive inhibitor”.

B2: FLAG-ERα-NTD(AF-1): ERα-NTD(AF-1) tagged at the N-terminus with DYKDDDDK, a FLAG-epitope peptide (protein)
chain: MTMTLHTKASGMALLHQIQGNELEPLNRPQLKIPLERPLGEVYLDSSKPAVYNYPEGAAYEFNAAAAANAQVYGQTGLPYGPGSEAAAFGSNGLGGFPPLNSVSPSPLMLLHPPPQLSPFLQPHGQQVPYYLENEPSGYTVREAGPPAFYRPNSDNRRQGGRERLASTNDKGSMAMESAK
modifications: left off: FLAG, N-terminal, kept
In the case of B2, the “effect on transcription activity of full-length ERα” value (full-length ERα) is reported as “inhibits full-length ERα”.
